Laboratory results as given in paper PMC11677393 (International Journal of Molecular Sciences, 2024).

Experiments:
[1] = biological target: the molecule itself; experiment: SEC; Superdex 75 during purification; 20 mM HEPES pH 7.6, 500 mM NaCl, 0.1 mM TCEP; elution compared with standard proteins
[2] = biological target: the molecule itself; experiment: crystal structure; apo GLI1(234–302), no DNA; sitting drop, 29–32% PEG3350, 0.1 M Bis-Tris pH 6.5; two molecules in the asymmetric unit, space group P65, 2.05 Å

Row | Protein | stoichiometry N [1] | binding result [2]
1 | GLI1(234–326) (domain or fragment, human, UniProt P08151 234-326, looked up, a few residues of the TEV site and linker may remain at the N-terminus (surmised); also called Zif truncation with 3 Zif motifs; not shown: His6, N-terminal, cleaved; SUMO (yeast SMT3), N-terminal, cleaved) ETDCRWDGCSQEFDSQEQLVHHINSEHIHGERKEFVCHWGGCSRELRPFKAQYMLVVHMRRHTGEKPHKCTFEGCRKSYSRLENLKTHLRSHT | 2 | 
2 | GLI1(234–358) (domain or fragment, a few residues of the TEV site and linker may remain at the N-terminus (surmised); also called Zif truncation with 4 Zif motifs; not shown: His6, N-terminal, cleaved; SUMO (yeast SMT3), N-terminal, cleaved) not shown | 2 | 
3 | Human GLI1 truncation containing zinc finger motif 1 and 2 (residue 234–302) (domain or fragment, TEV protease was used to remove His-SUMO; Two zinc ions per chain; also called GLI1 Zif1-2; source: E. coli Rosetta pLysS, purified (Ni-NTA, TEV cleavage, glutathione column, HiTrap Q HP, Superdex 75); not shown: His6, N-terminal, cleaved; SUMO (yeast SMT3), N-terminal, cleaved) ETDCRWDGCSQEFDSQEQLVHHINSEHIHGERKEFVCHWGGCSRELRPFKAQYMLVVHMRRHTGEKPHK |  | binds
4 | GLI1(234–388) (domain or fragment, human, UniProt P08151 234-388, looked up, a few residues of the TEV site and linker may remain at the N-terminus (surmised); PDB 2GLI is the cited structure of GLI1 Zif1-5 with DNA; also called Zif truncation with 5 Zif motifs; Zif1-5; not shown: His6, N-terminal, cleaved; SUMO (yeast SMT3), N-terminal, cleaved) ETDCRWDGCSQEFDSQEQLVHHINSEHIHGERKEFVCHWGGCSRELRPFKAQYMLVVHMRRHTGEKPHKCTFEGCRKSYSRLENLKTHLRSHTGEKPYMCEHEGCSKAFSNASDRAKHQNRTHSNEKPYVCKLPGCTKRYTDPSSLRKHVKTVHG | 2 | 
